In article PMC10281804, “The structural basis of the talin–KANK1 interaction that coordinates the actin and microtubule cytoskeletons at focal adhesions” (Open Biology, 2023):
Positions count from the first letter of the chain named. Numbers in names are those of the source.

B1: KANK1 WT: human FL-KANK1 tagged with pmCherry (protein, UniProt Q14678 1-1352, looked up)
chain: MAHTTKVNGSASGKAGDILSGDQDKEQKDPYFVETPYGYQLDLDFLKYVDDIQKGNTIKRLNIQKRRKPSVPCPEPRTTSGQQGIWTSTESLSSSNSDDNKQCPNFLIARSQVTSTPISKPPPPLETSLPFLTIPENRQLPPPSPQLPKHNLHVTKTLMETRRRLEQERATMQMTPGEFRRPRLASFGGMGTTSSLPSFVGSGNHNPAKHQLQNGYQGNGDYGSYAPAAPTTSSMGSSIRHSPLSSGISTPVTNVSPMHLQHIREQMAIALKRLKELEEQVRTIPVLQVKISVLQEEKRQLVSQLKNQRAASQINVCGVRKRSYSAGNASQLEQLSRARRSGGELYIDYEEEEMETVEQSTQRIKEFRQLTADMQALEQKIQDSSCEASSELRENGECRSVAVGAEENMNDIVVYHRGSRSCKDAAVGTLVEMRNCGVSVTEAMLGVMTEADKEIELQQQTIESLKEKIYRLEVQLRETTHDREMTKLKQELQAAGSRKKVDKATMAQPLVFSKVVEAVVQTRDQMVGSHMDLVDTCVGTSVETNSVGISCQPECKNKVVGPELPMNWWIVKERVEMHDRCAGRSVEMCDKSVSVEVSVCETGSNTEESVNDLTLLKTNLNLKEVRSIGCGDCSVDVTVCSPKECASRGVNTEAVSQVEAAVMAVPRTADQDTSTDLEQVHQFTNTETATLIESCTNTCLSTLDKQTSTQTVETRTVAVGEGRVKDINSSTKTRSIGVGTLLSGHSGFDRPSAVKTKESGVGQININDNYLVGLKMRTIACGPPQLTVGLTASRRSVGVGDDPVGESLENPQPQAPLGMMTGLDHYIERIQKLLAEQQTLLAENYSELAEAFGEPHSQMGSLNSQLISTLSSINSVMKSASTEELRNPDFQKTSLGKITGNYLGYTCKCGGLQSGSPLSSQTSQPEQEVGTSEGKPISSLDAFPTQEGTLSPVNLTDDQIAAGLYACTNNESTLKSIMKKKDGNKDSNGAKKNLQFVGINGGYETTSSDDSSSDESSSSESDDECDVIEYPLEEEEEEEDEDTRGMAEGHHAVNIEGLKSARVEDEMQVQECEPEKVEIRERYELSEKMLSACNLLKNTINDPKALTSKDMRFCLNTLQHEWFRVSSQKSAIPAMVGDYIAAFEAISPDVLRYVINLADGNGNTALHYSVSHSNFEIVKLLLDADVCNVDHQNKAGYTPIMLAALAAVEAEKDMRIVEELFGCGDVNAKASQAGQTALMLAVSHGRIDMVKGLLACGADVNIQDDEGSTALMCASEHGHVEIVKLLLAQPGCNGHLEDNDGSTALSIALEAGHKDIAVLLYAHVNFAKAQSPGTPRLGRKTSPGPTHRGSFD
modifications: full-length mCherry fusion
notes: human FL-KANK1 tagged with pmCherry
B2: KANK1 L43E: mCherry-KANK1 with point mutation L43E (protein)
chain: B1 chain with L43E
modifications: left off: mCherry, C-terminal, kept
B3: KANK1 V49E: mCherry-KANK1 with point mutation V49E (protein)
chain: B1 chain with V49E
modifications: left off: mCherry, C-terminal, kept
B4: KANK1 F45E: mCherry-KANK1 with point mutation F45E (protein)
chain: B1 chain with F45E
modifications: left off: mCherry, C-terminal, kept
B5: KANK1 L41E: mCherry-KANK1 with point mutation L41E (protein)
chain: B1 chain with L41E
modifications: left off: mCherry, C-terminal, kept

How the values were obtained:
[1] = tested on: focal adhesions of NIH3T3 fibroblasts; experiment: KANK1 localization to focal adhesions (co-expression with GFP–paxillin); assay type: cell-based, mouse; conditions: NIH3T3 fibroblasts co-expressing GFP–paxillin
Procedure: (§1) NIH3T3 mouse fibroblasts and HEK293T human epithelial cells were obtained from the American Type Culture Collection (ATCC). The vinculin null and WT mouse embryonic fibroblasts (MEFs) originate from the Eileen Adamson laboratory. All cells were maintained in Dulbecco's Modified Eagle Medium (DMEM; Sigma) supplemented with 10% fetal bovine serum (FBS, Gibco), 1% L-glutamine (Sigma) and 1% non-essential amino acids (Sigma). Talin1&2 null cells were cultured in DMEM F-12 (Gibco) supplemented with 10% FBS, 1% L-glutamine, 1% non-essential amino acids and […] HEPES (Sigma). All cells were cultured at 37̊C supplied with 5% CO2 and 95% humidity. Transient transfections were performed using Lipofectamine LTX with Plus Reagent (Invitrogen) to NIH3T3 cells, Lipofectamine 2000 (Invitrogen) to talin null cells, and jetPRIME reagent (Polyplus) to MEFs and HEK293T cells, as per the manufacturer's instructions.
(§2) For the construction of mCherry-KANK1, human FL-KANK1 (generous donation from the Bershadsky laboratory) cDNA was tagged in the C-terminal site with pmCherry (Clontech) by restriction digestion. Point mutations (L41E, L43E, F45E and V49E) were introduced in mCherry-KANK1 by site-directed mutagenesis (NEB) using the following oligonucleotides: […]ga[…] and […] for L41E; […]ga[…] and […] for L43E; […]gaa[…] and […] for F45E; […]a[…] and […] for V49E. Generation of GFP–talin1–cBAK and GFP–cBAK was as previously described. G1404L was introduced on GFP–talin1–cBAK by the method above using […]ctt[…] and […]. To generate GFP–talin1 R7DD–cBAK and GFP–talin1 R9DD-cBAK constructs, R7-DD (3555 bp) and R9-DD (2661 bp) were amplified from talin-1 (Mus musculus). Restriction digestion with XhoI and HindIII FastDigest enzymes (Thermo Scientific) was used to linearize GFP–cBAK. DNA assembly was performed to join R7-DD and R9-DD to linearized the GFP–cBAK vector using the NEBuilder HiFi DNA assembly kit (NEB).
(§3) Images of fixed samples in PBS were acquired at room temperature using an Olympus IX83 inverted microscope equipped with a 60×/1.42 PlanApo N oil objective and a QImaging Retiga R6 CCD camera, controlled by Metamorph software. Samples were illuminated using LEDs (UV/Cyan/Green-Yellow/Red, Lumencor) for fluorescence excitation; a Sedat filter set (DAPI/FITC/TRITC/Cy5, Chroma, 89000) was used.

[2] = tested on: GFP–talin1–cBAK; experiment: Mitochondrial targeting system (MTS): recruitment of mCherry–KANK1 by GFP–talin1–cBAK; assay type: cell-based; conditions: NIH3T3 fibroblasts and HEK293T cells; fluorescence microscopy colocalization
Source text: To examine the effect of these KANK1 mutations on talin interactions in cells, we next used a mitochondrial targeting system (MTS) which we previously used to screen for defined protein–protein interactions. In this assay, one protein is fused to a small peptide sequence from the pro-apoptotic protein BAK (cBAK) which leads to its insertion into the outer membrane of mitochondria. Proteins that interact with the cBAK-tagged protein will get recruited to mitochondria, and this recruitment can be verified either by visualizing colocalization using fluorescence microscopy (figure 4a) or by purification of mitochondria followed by detection of co-precipitates using biochemistry (figure 4b,c). […] To confirm that the interaction was meditated by the R7 domain, we performed the colocalization assays with truncated talin constructs.
as §1, §2, §3

[3] = tested on: talin1-cBAK; experiment: Mitochondria pulldown of KANK1 WT or point mutations, Western blot; assay type: cell-based; conditions: HEK293T cells; mitochondrial pulldown, triplicate experiments, normalized to WT; *** p < 0.001 (one-way ANOVA, Dunnett's)
Source text: as §2
For fixed cell imaging, cells were cultured in glass-bottom dishes (IBL) coated with bovine fibronectin (Sigma) at a final concentration of 10 µg ml^−1. Samples were fixed in 4% paraformaldehyde (PFA, Sigma), and warmed to 37̊C, for 15 min before being washed three times with PBS. For immunofluorescence staining, samples were permeabilized at room temperature with 0.5% Triton X-100 (Sigma) for 5 min before being washed three times. […]
Protein samples were extracted from cells and mitochondria, respectively, using RIPA lysis buffer (Chromotek) supplemented with protease inhibitors. […] Primary antibody signal was detected using goat anti-mouse IgG conjugated to IRDye 680RD (ab216776, abcam) and goat anti-rabbit IgG conjugated to IRDye 800CW (ab216773, abcam) secondary antibodies, diluted 1 : 15 000, imaged with an Odyssey CLx imaging system (LI-CO Biosciences). […]

[4] = tested on: α/β liprin in NIH3T3 fibroblasts; experiment: α/β liprin localization (CMSC assembly); assay type: cell-based, mouse; conditions: NIH3T3 fibroblasts co-transfected with GFP–paxillin and mCherry–KANK1 F45E; immunostaining
Procedure: as §1, with “instructions. […]” for “instructions.”
as §3

Molecule | localization of mCherry–KANK1 to FAs / FA belt [1] | recruitment of mCherry–KANK1 to mitochondria by GFP–talin1–cBAK [2] | relative KANK1 binding to talin1-cBAK (%) [3] | α/β liprin localization [4]
B1 | readily localized to FAs, and predominantly to the typical ‘belt-like’ structure | readily recruits | – | –
B2 | abolished localization to FAs and the FA belt | abolishes GFP–talin–cBAK mediated recruitment | not detected | –
B3 | abolished localization to FAs and the FA belt | abolishes GFP–talin–cBAK mediated recruitment | – | –
B4 | abolished localization to FAs and the FA belt | abolishes GFP–talin–cBAK mediated recruitment | not detected | loss of α/β liprin from both the adhesion belt and the cellular cortex
B5 | abolished localization to FAs and the FA belt | abolishes GFP–talin–cBAK mediated recruitment | not detected | –
